Test results: article PMC6224377 (Frontiers in Immunology, 2018)
Residue numbers refer to the chain shown, from its start.

B1: GK-1E5 (antibody, V domains shown)
VH: EVQLVESGGGVVQPGRSLRLSCAASGFTFRSYGMHWVRQAPGKGLEWVAIIWYDGSKKYYTDSVQGRFTISRDNSKNTLYLQMNSLRAEDTAVYYCARPGIAMTGLDYWGQGTLVTVSS
VL: DIQLTQSPSTLSASVGDRVTITCRASQSISSWLAWYQQKPGKAPKLLIYKASSLESGVPSRFSGSGSGTEFTLTISSLQPDDFATYYCQQYNNYWTFGQGTKVEIK
B2: GK-5A1 (antibody, V domains shown)
VH: QVQLVESGGGVVQPGRSLRLSCAASGFTFSSYGMYWVRQAPGKGLEWVAVIWNDGSNKYYADSVKGRFTISRDNSKNTLYLQMNSLRAEDTAVYYCAREGSGWYDYYYGMDVWGQGTTVTVSS
VL: B1 VL with D1E, Q3V, N93S, E104D
B3: GK-2G8 (antibody, V domains shown)
VH: B1 VH with E1Q, V5Q, Q65K, I101V, Y108L
VL: B1 VL with D1E, Q3V, L4M, E104D
B4: MK-3B12 (antibody, V domains shown)
VH: EVQLVESGPGLLKPSETLSLTCAVSGYSISSGYYWGWIRQPPGKGLEWIGSIYQSGSTHYNPSLKSRVTISVDTSKNQFSLKLTSVTAADTAVYYCAREDRAGWYPFDCWGQGTLVTVSS
VL: B1 VL with Q3V, L4M
B5: GK-5E1 (antibody, V domains shown)
VH: QVTLKESGGDVVQPGRSLRLSCAASGFTFRTYGMHWVRQAPGKGPEWVALIWYDGSKKYYADSVKGRFTISRDNSKNTLYLQMNSLRAEDTAVYYCVRVRFGELYFQHWGQGTLVTVSS
VL: not shown
B6: GK-5G12 (antibody, V domains shown)
VH: B5 VH with V2I, D10G, P45L, K57N, V97I, R100K, E103D
VL: EIVLTQSPSSLSASVGDRVTITCRASQGISNYLAWYQQKPGKVPKLLIYAASTLQSGVPSRFSGSGSGTDFTLTISSLQPEDVATYYCQKYNSAPYTFGQGTKLEIK
B7: MK-24C10 (antibody, V domains shown)
VH: QVQLVESGGGVVQPGRSLRLSCAASGFTFSSYGMHWVRQAPGKGLEWVAVIWFDGTNKHYADSVKGRFTISRDNSKNTLYLQMNSLRAEDTAVYYCARDKGEWFGELRYYYYGMDVWGQGTTVTVSS
VL: not shown
B8: GK-22G12 (antibody, V domains shown)
VH: EVQLVESGGGLVQSGGSLRLSCAASGFTFSSQRLSWVRQAPGKGLEWVANIKQDGSEKNYVDSVRGRFTISRDIAKNSLYLQMNSLRAEDTAVYYCARDGYRNGWHIPEDYWGQGTLVTVSS
VL: B6 VL with E1D, L4M, A84S, Y91H, S93R, Y96W
B9: MK-7C3 (antibody, V domains shown)
VH: EVQLLETGGGVVQPGRSLRLSCVASGFTFRSHGMHWVRQAPGKGLEWVALIWYDGSKKYYADSVKGRFTISRDNSKNTLYLQMNSLRAEDTAVYYCARVGAGLYLDYWGQGTLVTVSS
VL: AIRMTQSPSTLSASVGDRVTITCRASQTISNWLAWFQQKPGKAPKVLIYKASSLESGVPSRFSGSGSGTEFTLTISSLQPDDFASYYCQQYNSYSYTFGQGTRLEIK

Target: T1, hROR2-ECD-Twin-Strep (soluble human ROR2 extracellular domain fused to a Twin-Strep-tag) (Homo sapiens (Human)., UniProt Q01974)
T1 construct: signal peptide in the construct; extracellular domain of human receptor tyrosine kinase-like orphan receptor 2 (ROR2), NP_004551.2, amino acids 1-403; Gene synthesis (GenScript), vector pCB14b; also called hROR2-Twin-Strep; human ROR2-ECD-Twin-Strep; not shown: Twin-Strep-tag, C-terminal, kept
Test: ELISA; MaxiSorp plates coated with 2 μg/ml antigen in 100 mM bicarbonate/carbonate buffer; purified monoclonal antibodies from 0.5-2 μg/ml in serial dilutions in PBS-T/1% BSA, 1 h at 37°C; detected with HRP-conjugated F(ab')2 anti-human Fcγ
Conditions: both partners purified

T1 sequence (Q01974 34-403): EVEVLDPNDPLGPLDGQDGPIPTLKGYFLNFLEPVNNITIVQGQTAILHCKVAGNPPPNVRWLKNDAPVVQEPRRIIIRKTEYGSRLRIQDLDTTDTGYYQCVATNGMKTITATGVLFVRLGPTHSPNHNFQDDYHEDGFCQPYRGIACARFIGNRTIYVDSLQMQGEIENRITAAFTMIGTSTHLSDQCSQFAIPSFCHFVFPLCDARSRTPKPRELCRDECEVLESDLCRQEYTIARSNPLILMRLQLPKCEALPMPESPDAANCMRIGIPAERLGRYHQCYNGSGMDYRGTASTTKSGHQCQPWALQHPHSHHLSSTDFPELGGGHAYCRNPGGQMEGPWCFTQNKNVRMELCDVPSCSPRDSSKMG

Binding result, binds:
B1, B2, B3, B4, B5, B6

Target: T1, hROR2-ECD-Twin-Strep (soluble human …)
Test: SPR; multi-cycle SPR, Biacore T200; antibodies captured on a CM5 Protein A chip or by Protein G immobilized on a CM5 chip (capture levels 148 to 845 RU); hROR2-ECD-Twin-Strep as analyte, 2-fold serial dilutions 40 nM to 2.5 nM in running buffer
Conditions: both partners purified

Binding result, binds:
B7, B8, B9
